Data reported in patent US20020119572.

Target: T1, gold nanoparticle linked S18 peptide
T1 chain: CGGKETAAAKFERQHMDS

B1: S-protein of Ribonuclease S (protein)
chain: SSSNYCNQMMKSRNLTKDRCKPVNTFVHESLADVQAVCSQKNVACKNGQTNCYQSYSTMSITDCRETGSSKYPNCAYKTTQANKHIIVACEGNPYVPVHFDASV
- RF power level at 50% RNase S activity (poly C hydrolysis): -4 dBm at the 50% activity
- RNase S activity (digested polyC, absorption at 280 nm) with RFMF on and off: The activity with the RFMF on was less than with the RFMF off
